Two substances from patent US20250042949A1 can be followed below.

The assay deals with recombinant human ACE2 receptor (SinoBiological) (human) (UniProt Q9BYF1).
Sequence of UniProt Q9BYF1 (Q9BYF1 18-740 limits assumed): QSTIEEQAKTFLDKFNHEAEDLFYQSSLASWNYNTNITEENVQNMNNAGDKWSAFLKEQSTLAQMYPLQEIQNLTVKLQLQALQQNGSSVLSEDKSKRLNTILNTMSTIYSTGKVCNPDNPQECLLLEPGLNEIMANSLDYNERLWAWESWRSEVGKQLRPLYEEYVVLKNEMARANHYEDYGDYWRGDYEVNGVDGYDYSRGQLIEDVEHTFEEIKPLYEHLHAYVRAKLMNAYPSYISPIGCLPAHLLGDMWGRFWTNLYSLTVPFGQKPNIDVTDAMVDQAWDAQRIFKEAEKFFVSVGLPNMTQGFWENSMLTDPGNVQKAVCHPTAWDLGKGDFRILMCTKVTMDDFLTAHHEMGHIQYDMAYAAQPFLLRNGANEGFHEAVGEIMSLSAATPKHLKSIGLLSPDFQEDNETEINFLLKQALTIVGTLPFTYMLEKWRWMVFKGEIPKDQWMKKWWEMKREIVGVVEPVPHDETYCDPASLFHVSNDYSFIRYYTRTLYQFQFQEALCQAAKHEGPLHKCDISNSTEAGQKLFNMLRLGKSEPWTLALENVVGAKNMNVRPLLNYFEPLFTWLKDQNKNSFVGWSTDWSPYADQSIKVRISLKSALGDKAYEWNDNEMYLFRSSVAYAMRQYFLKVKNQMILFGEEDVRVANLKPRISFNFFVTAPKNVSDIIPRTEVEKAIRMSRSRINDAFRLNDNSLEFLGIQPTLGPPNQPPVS

In the case of “RBD-omicron B.1.1.529 (RBD-C-tag) (other; other documents disagree on this pair)”, the fold higher binding activity than the reference Wuhan RBD-C-tag was 4 fold.

As for “RBD-omicron BA.5 (RBD-C-tag) (other; other documents disagree on this pair)”, the fold higher binding activity than the reference Wuhan RBD-C-tag turned out to be 8 fold.
